The source of these data is the supplement of paper PMC10567573.

B1: EPB41L3 (parent)
chain: GSKFRYSGRTQAQTRRASALIDRP
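Also: lentivirally expressed fusions sorted by FACS into six bins by GFP to DsRed ratio, PSI derived from sequencing read proportions per bin multiplied by bin number.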

In this data set the parent is B1. The data set can be described thus: protein stability index of a GFP-peptide fusion (GPS, HEK-293T) (PSI 1-6); higher = more stable. The following applies: c terminus: a fixed tail appended.
Consider GSKFRYSGRTQAQTRRAGALIDRP [S18G], for which the protein stability index worked out at 3.54. Under GSKFRYSGRTQAQTRRAPALIDRP [S18P] stands 3.73; under GSKFRYSGRTQAQTRRAYALIDRP [S18Y], 2.27; under GSKFRYSGRTQAQTRRAHALIDRP [S18H], 3.42. With GSKFRYSGRTQAQTRRADALIDRP [S18D], the protein stability index stood at 3.52.

Regarding GSKFRYSGRTQAQTRRAIALIDRP [S18I], the protein stability index amounted to 2.7. GSKFRYSGRTQAQTRRALALIDRP [S18L]: the protein stability index came to 3.01.

Regarding GSKFRYSGRTQAQTRRACALIDRP [S18C], the protein stability index was found to be 2.5. Under GSKFRYSGRTQAQTRRAMALIDRP [S18M] stands 2.71; under GSKFRYSGRTQAQTRRAQALIDRP [S18Q], 3.19; under GSKFRYSGRTQAQTRRAKALIDRP [S18K], 3.29.

Regarding GSKFRYSGRTQAQTRRARALIDRP [S18R], the protein stability index was found to be 3.08.

As to GSKFRYSGRTQAQTRRAVALIDRP [S18V], the protein stability index amounted to 2.85. Consider GSKFRYSGRTQAQTRRATALIDRP [S18T], for which the protein stability index was determined as 2.29. Under GSKFRYSGRTQAQTRRAWALIDRP [S18W] stands 2.58; under GSKFRYSGRTQAQTRRAFALIDRP [S18F], 2.16; under GSKFRYSGRTQAQTRRANALIDRP [S18N], 3.25. Under GSKFRYSGRTQAQTRRAAALIDRP [S18A] stands 3.02. Under GSKFRYSGRTQAQTRRYSALIDRP [A17Y] stands 2.54; under GSKFRYSGRTQAQTRRFSALIDRP [A17F], 2.52.

On to GSKFRYSGRTQAQTRRGSALIDRP [A17G], for which the protein stability index is 3.22. Under GSKFRYSGRTQAQTRRSSALIDRP [A17S] stands 3.12. The same measure for GSKFRYSGRTQAQTRRMSALIDRP [A17M]: 3.02. The same measure for GSKFRYSGRTQAQTRRLSALIDRP [A17L]: 2.65; for GSKFRYSGRTQAQTRRQSALIDRP [A17Q]: 3.58; for GSKFRYSGRTQAQTRRRSALIDRP [A17R]: 3.25. Turning to GSKFRYSGRTQAQTRRTSALIDRP [A17T], the protein stability index turned out to be 2.99. The same measure for GSKFRYSGRTQAQTRRHSALIDRP [A17H]: 2.57; for GSKFRYSGRTQAQTRRISALIDRP [A17I]: 3.25; for GSKFRYSGRTQAQTRRESALIDRP [A17E]: 3.54. Consider GSKFRYSGRTQAQTRRKSALIDRP [A17K], for which the protein stability index turned out to be 3.16.

Regarding GSKFRYSGRTQAQTRRWSALIDRP [A17W], the protein stability index came out at 2.21. The same measure for GSKFRYSGRTQAQTRRDSALIDRP [A17D]: 3.41. Under GSKFRYSGRTQAQTRRVSALIDRP [A17V] stands 2.66. The same measure for GSKFRYSGRTQAQTRRNSALIDRP [A17N]: 3.19.

On to GSKFRYSGRTQAQTRRPSALIDRP [A17P], for which the protein stability index was determined as 2.96. Regarding GSKFRYSGRTQAQTRRCSALIDRP [A17C], the protein stability index is 2.09. For GSKFRYSGRTQAPTRRASALIDRP [Q13P], the protein stability index was determined as 2.69. Turning to GSKFRYSGRTQALTRRASALIDRP [Q13L], the protein stability index stood at 2.91. Under GSKFRYSGRTQAITRRASALIDRP [Q13I] stands 2.9; under GSKFRYSGRTQAETRRASALIDRP [Q13E], 3.27.

GSKFRYSGRTQAYTRRASALIDRP [Q13Y]: the protein stability index is 2.46. Under GSKFRYSGRTQACTRRASALIDRP [Q13C] stands 2.98; under GSKFRYSGRTQAVTRRASALIDRP [Q13V], 3.53; under GSKFRYSGRTQASTRRASALIDRP [Q13S], 3.27. Under GSKFRYSGRTQAGTRRASALIDRP [Q13G] stands 3.49. Under GSKFRYSGRTQADTRRASALIDRP [Q13D] stands 3.08; under GSKFRYSGRTQAKTRRASALIDRP [Q13K], 3.19; under GSKFRYSGRTQAWTRRASALIDRP [Q13W], 1.97.

With GSKFRYSGRTQATTRRASALIDRP [Q13T], the protein stability index worked out at 2.73. With GSKFRYSGRTQAHTRRASALIDRP [Q13H], the protein stability index was determined as 2.65. The same measure for GSKFRYSGRTQAMTRRASALIDRP [Q13M]: 2.47.

In the case of GSKFRYSGRTQANTRRASALIDRP [Q13N], the protein stability index was determined as 3.39. The same measure for GSKFRYSGRTQARTRRASALIDRP [Q13R]: 3.25; for GSKFRYSGRTQAATRRASALIDRP [Q13A]: 2.84; for GSKFRYSGRTQAFTRRASALIDRP [Q13F]: 2.69.

As for GSKFRYSGRTQAQTRRASADIDRP [L20D], the protein stability index is 3.84.

Regarding GSKFRYSGRTQAQTRRASAGIDRP [L20G], the protein stability index is 3.16. Under GSKFRYSGRTQAQTRRASAIIDRP [L20I] stands 3.19. Under GSKFRYSGRTQAQTRRASAMIDRP [L20M] stands 3.59.

Regarding GSKFRYSGRTQAQTRRASAAIDRP [L20A], the protein stability index stood at 3.29.

For GSKFRYSGRTQAQTRRASAYIDRP [L20Y], the protein stability index was 3.02.

As for GSKFRYSGRTQAQTRRASAPIDRP [L20P], the protein stability index was 3.15.

As to GSKFRYSGRTQAQTRRASAFIDRP [L20F], the protein stability index stood at 2.65. Under GSKFRYSGRTQAQTRRASAQIDRP [L20Q] stands 3.79.

As for GSKFRYSGRTQAQTRRASANIDRP [L20N], the protein stability index was found to be 3.78. As to GSKFRYSGRTQAQTRRASACIDRP [L20C], the protein stability index was 3.12. Turning to GSKFRYSGRTQAQTRRASAEIDRP [L20E], the protein stability index stood at 3.89. Under GSKFRYSGRTQAQTRRASAWIDRP [L20W] stands 3.23; under GSKFRYSGRTQAQTRRASAKIDRP [L20K], 3.79; under GSKFRYSGRTQAQTRRASASIDRP [L20S], 3.46. Under GSKFRYSGRTQAQTRRASAVIDRP [L20V] stands 3.52. For GSKFRYSGRTQAQTRRASATIDRP [L20T], the protein stability index is 3.62.

On to GSKFRYSGRTQAQTRRASARIDRP [L20R], for which the protein stability index is 3.28. Under GSKFRYSGRTQAQTRRASAHIDRP [L20H] stands 3.37; under GSKFRYSGRTQAQTRRASELIDRP [A19E], 3.28; under GSKFRYSGRTQAQTRRASSLIDRP [A19S], 3.41. With GSKFRYSGRTQAQTRRASTLIDRP [A19T], the protein stability index amounted to 3.3. The same measure for GSKFRYSGRTQAQTRRASPLIDRP [A19P]: 2.68. On to GSKFRYSGRTQAQTRRASKLIDRP [A19K], for which the protein stability index was 3.39.

For the variant GSKFRYSGRTQAQTRRASDLIDRP [A19D], the protein stability index stood at 3.6. The same measure for GSKFRYSGRTQAQTRRASGLIDRP [A19G]: 2.91.

In the case of GSKFRYSGRTQAQTRRASWLIDRP [A19W], the protein stability index came out at 2.45. Under GSKFRYSGRTQAQTRRASMLIDRP [A19M] stands 3.07; under GSKFRYSGRTQAQTRRASFLIDRP [A19F], 2.41. Under GSKFRYSGRTQAQTRRASLLIDRP [A19L] stands 3.12.

On to GSKFRYSGRTQAQTRRASILIDRP [A19I], for which the protein stability index was 3.04. The same measure for GSKFRYSGRTQAQTRRASNLIDRP [A19N]: 3.4; for GSKFRYSGRTQAQTRRASHLIDRP [A19H]: 3.26. The same measure for GSKFRYSGRTQAQTRRASRLIDRP [A19R]: 3.43; for GSKFRYSGRTQAQTRRASVLIDRP [A19V]: 2.42. The same measure for GSKFRYSGRTQAQTRRASQLIDRP [A19Q]: 3.22. Turning to GSKFRYSGRTQAQTRRASCLIDRP [A19C], the protein stability index is 2.74. The same measure for GSKFRYSGRTQAQTRRASYLIDRP [A19Y]: 2.07.
